# Laboratory results: US20150376282A1
# B1: 2F8-HG-F405A (antibody, part only; not given: 2F8 VH and light chain, part only)
# heavy, part: ASTKGPSVFPLAPCSRSTSESTAALGCLVKDYFPEPVTVSWNSGALTSGVHTFPAVLQSSGLYSLSSVVTVPSSSLGTKTYTCNVDHKPSNTKVDKRVAPEFLGGPSVFLFPPKPKDTLMISRTPEVTCVVVDVSQEDPEVQFNWYVDGVEVHNAKTKPREEQFNSTYRVVSVLTVLHQDWLNGKEYKCKVSNKGLPSSIEKTISKAKGQPREPQVYTLPPSQEEMTKNQVSLTCLVKGFYPSDIAVEWESNGQPENNYKTTPPVLDSDGSFALYSRLTVDKSRWQEGNVFSCSVMHEALHNHYTQKSLSLSLGK
# Columns and labels:
# 2F8-HG (human) [1] = assay: non-covalent nano-ESI MS, 1 µM, self-association
# 2F8-HG (human) [2] = assay: non-covalent nano-ESI MS, monomer/dimer equilibrium (CH3-CH3 dimerisation of half-molecules)
# 2F8-HG-L236V (human) = assay: non-covalent nano-ESI MS, 0.01-10 µM, self-association
# 2F8-HG-Y275A (human) = assay: as above
# 2F8-HG-F405A (human) = assay: as above
molecule,measurement,setting,value
2F8-HG (antibody),percentage molecules present as monomers,2F8-HG (human) [1],15%
same,Kd,2F8-HG (human) [2],50 nM
2F8-HG-L236V (antibody),percent monomeric at low concentrations,2F8-HG-L236V (human),100%
2F8-HG-Y275A (antibody),percent monomeric at low concentrations,2F8-HG-Y275A (human),100%
B1,percent monomeric at low concentrations,2F8-HG-F405A (human),100%
